Drawing on PMC4912689, “The Extracellular Surface of the GLP-1 Receptor Is a Molecular Trigger for Biased Agonism” (Cell, 2016), this text covers log10 ratio for 13 molecules.

To fix the notation:
B1: glucagon-like peptide 1 receptor (GLP-1R), wild-type, P43220 Y289A (protein)
chain: RPQGATVSLWETVQKWREYRRQCQRSLTEDPPPATDLFCNRTFDEYACWPDGEPGSFVNVSCPWYLPWASSVPQGHVYRFCTAEGLWLQKDNSSLPWRDLSECEESKRGERSSPEEQLLFLYIIYTVGYALSFSALVIASAILLGFRHLHCTRNYIHLNLFASFILRALSVFIKDAALKWMYSTAAQQHQWDGLLSYQDSLSCRLVFLLMQYCVAANYYWLLVEGVYLYTLLAFSVLSEQWIFRLYVSIGWGVPLLFVVPWGIVKALYEDEGCWTRNSNMNYWLIIRLPILFAIGVNFLIFVRVICIVVSKLKANLMCKTDIKCRLAKSTLTLIPLLGTHEVIFAFVMDEHARGTLRFIKLFTELSFTSFQGLMVAILYCFVNNEVQLEFRKSWERWRLEHLHIQRDSSMKPLKCPTSSLSSGATAGSSMYTATCQASCS
B2: glucagon-like peptide 1 receptor (GLP-1R), wild-type, P43220 L217A (protein)
chain: RPQGATVSLWETVQKWREYRRQCQRSLTEDPPPATDLFCNRTFDEYACWPDGEPGSFVNVSCPWYLPWASSVPQGHVYRFCTAEGLWLQKDNSSLPWRDLSECEESKRGERSSPEEQLLFLYIIYTVGYALSFSALVIASAILLGFRHLHCTRNYIHLNLFASFILRALSVFIKDAALKWMYSTAAQQHQWDGALSYQDSLSCRLVFLLMQYCVAANYYWLLVEGVYLYTLLAFSVLSEQWIFRLYVSIGWGVPLLFVVPWGIVKYLYEDEGCWTRNSNMNYWLIIRLPILFAIGVNFLIFVRVICIVVSKLKANLMCKTDIKCRLAKSTLTLIPLLGTHEVIFAFVMDEHARGTLRFIKLFTELSFTSFQGLMVAILYCFVNNEVQLEFRKSWERWRLEHLHIQRDSSMKPLKCPTSSLSSGATAGSSMYTATCQASCS
B3: glucagon-like peptide 1 receptor (GLP-1R), wild-type, P43220 C296A (protein)
chain: RPQGATVSLWETVQKWREYRRQCQRSLTEDPPPATDLFCNRTFDEYACWPDGEPGSFVNVSCPWYLPWASSVPQGHVYRFCTAEGLWLQKDNSSLPWRDLSECEESKRGERSSPEEQLLFLYIIYTVGYALSFSALVIASAILLGFRHLHCTRNYIHLNLFASFILRALSVFIKDAALKWMYSTAAQQHQWDGLLSYQDSLSCRLVFLLMQYCVAANYYWLLVEGVYLYTLLAFSVLSEQWIFRLYVSIGWGVPLLFVVPWGIVKYLYEDEGAWTRNSNMNYWLIIRLPILFAIGVNFLIFVRVICIVVSKLKANLMCKTDIKCRLAKSTLTLIPLLGTHEVIFAFVMDEHARGTLRFIKLFTELSFTSFQGLMVAILYCFVNNEVQLEFRKSWERWRLEHLHIQRDSSMKPLKCPTSSLSSGATAGSSMYTATCQASCS
B4: glucagon-like peptide 1 receptor (GLP-1R), wild-type, P43220 F385A (protein)
chain: RPQGATVSLWETVQKWREYRRQCQRSLTEDPPPATDLFCNRTFDEYACWPDGEPGSFVNVSCPWYLPWASSVPQGHVYRFCTAEGLWLQKDNSSLPWRDLSECEESKRGERSSPEEQLLFLYIIYTVGYALSFSALVIASAILLGFRHLHCTRNYIHLNLFASFILRALSVFIKDAALKWMYSTAAQQHQWDGLLSYQDSLSCRLVFLLMQYCVAANYYWLLVEGVYLYTLLAFSVLSEQWIFRLYVSIGWGVPLLFVVPWGIVKYLYEDEGCWTRNSNMNYWLIIRLPILFAIGVNFLIFVRVICIVVSKLKANLMCKTDIKCRLAKSTLTLIPLLGTHEVIFAFVMDEHARGTLRFIKLATELSFTSFQGLMVAILYCFVNNEVQLEFRKSWERWRLEHLHIQRDSSMKPLKCPTSSLSSGATAGSSMYTATCQASCS
B5: glucagon-like peptide 1 receptor (GLP-1R), wild-type, P43220 S301A (protein)
chain: RPQGATVSLWETVQKWREYRRQCQRSLTEDPPPATDLFCNRTFDEYACWPDGEPGSFVNVSCPWYLPWASSVPQGHVYRFCTAEGLWLQKDNSSLPWRDLSECEESKRGERSSPEEQLLFLYIIYTVGYALSFSALVIASAILLGFRHLHCTRNYIHLNLFASFILRALSVFIKDAALKWMYSTAAQQHQWDGLLSYQDSLSCRLVFLLMQYCVAANYYWLLVEGVYLYTLLAFSVLSEQWIFRLYVSIGWGVPLLFVVPWGIVKYLYEDEGCWTRNANMNYWLIIRLPILFAIGVNFLIFVRVICIVVSKLKANLMCKTDIKCRLAKSTLTLIPLLGTHEVIFAFVMDEHARGTLRFIKLFTELSFTSFQGLMVAILYCFVNNEVQLEFRKSWERWRLEHLHIQRDSSMKPLKCPTSSLSSGATAGSSMYTATCQASCS
B6: glucagon-like peptide 1 receptor (GLP-1R), wild-type, P43220 R376A (protein)
chain: RPQGATVSLWETVQKWREYRRQCQRSLTEDPPPATDLFCNRTFDEYACWPDGEPGSFVNVSCPWYLPWASSVPQGHVYRFCTAEGLWLQKDNSSLPWRDLSECEESKRGERSSPEEQLLFLYIIYTVGYALSFSALVIASAILLGFRHLHCTRNYIHLNLFASFILRALSVFIKDAALKWMYSTAAQQHQWDGLLSYQDSLSCRLVFLLMQYCVAANYYWLLVEGVYLYTLLAFSVLSEQWIFRLYVSIGWGVPLLFVVPWGIVKYLYEDEGCWTRNSNMNYWLIIRLPILFAIGVNFLIFVRVICIVVSKLKANLMCKTDIKCRLAKSTLTLIPLLGTHEVIFAFVMDEHAAGTLRFIKLFTELSFTSFQGLMVAILYCFVNNEVQLEFRKSWERWRLEHLHIQRDSSMKPLKCPTSSLSSGATAGSSMYTATCQASCS
B7: glucagon-like peptide 1 receptor (GLP-1R), wild-type, P43220 L379A (protein)
chain: RPQGATVSLWETVQKWREYRRQCQRSLTEDPPPATDLFCNRTFDEYACWPDGEPGSFVNVSCPWYLPWASSVPQGHVYRFCTAEGLWLQKDNSSLPWRDLSECEESKRGERSSPEEQLLFLYIIYTVGYALSFSALVIASAILLGFRHLHCTRNYIHLNLFASFILRALSVFIKDAALKWMYSTAAQQHQWDGLLSYQDSLSCRLVFLLMQYCVAANYYWLLVEGVYLYTLLAFSVLSEQWIFRLYVSIGWGVPLLFVVPWGIVKYLYEDEGCWTRNSNMNYWLIIRLPILFAIGVNFLIFVRVICIVVSKLKANLMCKTDIKCRLAKSTLTLIPLLGTHEVIFAFVMDEHARGTARFIKLFTELSFTSFQGLMVAILYCFVNNEVQLEFRKSWERWRLEHLHIQRDSSMKPLKCPTSSLSSGATAGSSMYTATCQASCS
B8: glucagon-like peptide 1 receptor (GLP-1R), wild-type, P43220 E373A (protein)
chain: RPQGATVSLWETVQKWREYRRQCQRSLTEDPPPATDLFCNRTFDEYACWPDGEPGSFVNVSCPWYLPWASSVPQGHVYRFCTAEGLWLQKDNSSLPWRDLSECEESKRGERSSPEEQLLFLYIIYTVGYALSFSALVIASAILLGFRHLHCTRNYIHLNLFASFILRALSVFIKDAALKWMYSTAAQQHQWDGLLSYQDSLSCRLVFLLMQYCVAANYYWLLVEGVYLYTLLAFSVLSEQWIFRLYVSIGWGVPLLFVVPWGIVKYLYEDEGCWTRNSNMNYWLIIRLPILFAIGVNFLIFVRVICIVVSKLKANLMCKTDIKCRLAKSTLTLIPLLGTHEVIFAFVMDAHARGTLRFIKLFTELSFTSFQGLMVAILYCFVNNEVQLEFRKSWERWRLEHLHIQRDSSMKPLKCPTSSLSSGATAGSSMYTATCQASCS
B9: glucagon-like peptide 1 receptor (GLP-1R), wild-type, P43220 T378A (protein)
chain: RPQGATVSLWETVQKWREYRRQCQRSLTEDPPPATDLFCNRTFDEYACWPDGEPGSFVNVSCPWYLPWASSVPQGHVYRFCTAEGLWLQKDNSSLPWRDLSECEESKRGERSSPEEQLLFLYIIYTVGYALSFSALVIASAILLGFRHLHCTRNYIHLNLFASFILRALSVFIKDAALKWMYSTAAQQHQWDGLLSYQDSLSCRLVFLLMQYCVAANYYWLLVEGVYLYTLLAFSVLSEQWIFRLYVSIGWGVPLLFVVPWGIVKYLYEDEGCWTRNSNMNYWLIIRLPILFAIGVNFLIFVRVICIVVSKLKANLMCKTDIKCRLAKSTLTLIPLLGTHEVIFAFVMDEHARGALRFIKLFTELSFTSFQGLMVAILYCFVNNEVQLEFRKSWERWRLEHLHIQRDSSMKPLKCPTSSLSSGATAGSSMYTATCQASCS
B10: glucagon-like peptide 1 receptor (GLP-1R), wild-type, P43220 G377A (protein)
chain: RPQGATVSLWETVQKWREYRRQCQRSLTEDPPPATDLFCNRTFDEYACWPDGEPGSFVNVSCPWYLPWASSVPQGHVYRFCTAEGLWLQKDNSSLPWRDLSECEESKRGERSSPEEQLLFLYIIYTVGYALSFSALVIASAILLGFRHLHCTRNYIHLNLFASFILRALSVFIKDAALKWMYSTAAQQHQWDGLLSYQDSLSCRLVFLLMQYCVAANYYWLLVEGVYLYTLLAFSVLSEQWIFRLYVSIGWGVPLLFVVPWGIVKYLYEDEGCWTRNSNMNYWLIIRLPILFAIGVNFLIFVRVICIVVSKLKANLMCKTDIKCRLAKSTLTLIPLLGTHEVIFAFVMDEHARATLRFIKLFTELSFTSFQGLMVAILYCFVNNEVQLEFRKSWERWRLEHLHIQRDSSMKPLKCPTSSLSSGATAGSSMYTATCQASCS
B11: glucagon-like peptide 1 receptor (GLP-1R), wild-type, P43220 W214A (protein)
chain: RPQGATVSLWETVQKWREYRRQCQRSLTEDPPPATDLFCNRTFDEYACWPDGEPGSFVNVSCPWYLPWASSVPQGHVYRFCTAEGLWLQKDNSSLPWRDLSECEESKRGERSSPEEQLLFLYIIYTVGYALSFSALVIASAILLGFRHLHCTRNYIHLNLFASFILRALSVFIKDAALKWMYSTAAQQHQADGLLSYQDSLSCRLVFLLMQYCVAANYYWLLVEGVYLYTLLAFSVLSEQWIFRLYVSIGWGVPLLFVVPWGIVKYLYEDEGCWTRNSNMNYWLIIRLPILFAIGVNFLIFVRVICIVVSKLKANLMCKTDIKCRLAKSTLTLIPLLGTHEVIFAFVMDEHARGTLRFIKLFTELSFTSFQGLMVAILYCFVNNEVQLEFRKSWERWRLEHLHIQRDSSMKPLKCPTSSLSSGATAGSSMYTATCQASCS
B12: glucagon-like peptide 1 receptor (GLP-1R), wild-type, P43220 L384A (protein)
chain: RPQGATVSLWETVQKWREYRRQCQRSLTEDPPPATDLFCNRTFDEYACWPDGEPGSFVNVSCPWYLPWASSVPQGHVYRFCTAEGLWLQKDNSSLPWRDLSECEESKRGERSSPEEQLLFLYIIYTVGYALSFSALVIASAILLGFRHLHCTRNYIHLNLFASFILRALSVFIKDAALKWMYSTAAQQHQWDGLLSYQDSLSCRLVFLLMQYCVAANYYWLLVEGVYLYTLLAFSVLSEQWIFRLYVSIGWGVPLLFVVPWGIVKYLYEDEGCWTRNSNMNYWLIIRLPILFAIGVNFLIFVRVICIVVSKLKANLMCKTDIKCRLAKSTLTLIPLLGTHEVIFAFVMDEHARGTLRFIKAFTELSFTSFQGLMVAILYCFVNNEVQLEFRKSWERWRLEHLHIQRDSSMKPLKCPTSSLSSGATAGSSMYTATCQASCS
B13: glucagon-like peptide 1 receptor (GLP-1R), wild-type, P43220 R299A (protein)
chain: RPQGATVSLWETVQKWREYRRQCQRSLTEDPPPATDLFCNRTFDEYACWPDGEPGSFVNVSCPWYLPWASSVPQGHVYRFCTAEGLWLQKDNSSLPWRDLSECEESKRGERSSPEEQLLFLYIIYTVGYALSFSALVIASAILLGFRHLHCTRNYIHLNLFASFILRALSVFIKDAALKWMYSTAAQQHQWDGLLSYQDSLSCRLVFLLMQYCVAANYYWLLVEGVYLYTLLAFSVLSEQWIFRLYVSIGWGVPLLFVVPWGIVKYLYEDEGCWTANSNMNYWLIIRLPILFAIGVNFLIFVRVICIVVSKLKANLMCKTDIKCRLAKSTLTLIPLLGTHEVIFAFVMDEHARGTLRFIKLFTELSFTSFQGLMVAILYCFVNNEVQLEFRKSWERWRLEHLHIQRDSSMKPLKCPTSSLSSGATAGSSMYTATCQASCS

The assay concerns the target exendin-4, P26349. The experiment in a line: radioligand inhibition binding (competition with 125I-exendin-4(9-39)). Particulars: chain shown with the change;; read off a plot.
In the case of B1, the log10 ratio is 0 ΔpKi.

With B2, the log10 ratio was -0.3 ΔpKi.

B3: the log10 ratio was -1.8 ΔpKi.

As to B4, the log10 ratio is -0.2 ΔpKi.

In the case of B5, the log10 ratio was -0.3 ΔpKi.

B6: the log10 ratio was -0.35 ΔpKi.

For B7, the log10 ratio was -0.95 ΔpKi.

For the molecule B8, the log10 ratio is -1.3 ΔpKi.

For the molecule B9, the log10 ratio is -0.5 ΔpKi.

Take B10: the log10 ratio is -0.4 ΔpKi.

Consider B11, for which the log10 ratio was -0.25 ΔpKi.

For B12, the log10 ratio was -1.2 ΔpKi.

For B13, the log10 ratio is -1.5 ΔpKi.
